Test results taken from PMC9513805, “A natural transdifferentiation event involving mitosis is empowered by integrating signaling inputs with conserved plasticity factors”.

How the values were obtained:
[1] = target: T1, SOX-2;HMG-POP-1-FLAG (Caenorhabditis elegans;Caenorhabditis …, UniProt Q21305;Q10666 1-283;181-281, |); experiment: EMSA supershift; anti-FLAG; 20 mM Tris-HCl pH 8.0, 100 mM NaCl, 100 ug/mL BSA, 1 mM EDTA, 1 mM DTT, 0.1% NP-40; 20 min on ice (supershift 30 min at room temperature), 200 ng Cy5 probe; 6%; settings: protein: recombinant;recombinant; tags: N-terminal 6xHis, C-terminal HA (pSJ6094);N-terminal 6xHis, C-terminal FLAG (pSJ1107); copies: 1;1; label: Cy5 on forward strand; blunt
[2] = target: SOX-2;HMG-POP-1 (Caenorhabditis elegans;Caenorhabditis …, UniProt Q21305;Q10666 1-283;181-281, |); experiment: EMSA; SOX-2 125-500 nM added to HMG-POP-1; upper shift, most probably ternary complex; 20 mM Tris-HCl pH 8.0, 100 mM NaCl, 100 ug/mL BSA, 1 mM EDTA, 1 mM DTT, 0.1% NP-40; 20 min on ice (supershift 30 min at room temperature), 200 ng Cy5 probe; 6%; settings: protein: recombinant;recombinant; tags: N-terminal 6xHis, C-terminal HA (pSJ6094);N-terminal 6xHis (pSJ769); copies: 1;1; label: Cy5 on forward strand; blunt
[3] = target: T1, SOX-2;HMG-POP-1-FLAG; experiment: EMSA; co-incubation; upper co-binding band, supershift series with anti-HA and/or anti-FLAG; 20 mM Tris-HCl pH 8.0, 100 mM NaCl, 100 ug/mL BSA, 1 mM EDTA, 1 mM DTT, 0.1% NP-40; 20 min on ice (supershift 30 min at room temperature), 200 ng Cy5 probe; 6%; settings: protein: recombinant;recombinant; tags: N-terminal 6xHis, C-terminal HA (pSJ6094);N-terminal 6xHis, C-terminal FLAG (pSJ1107); copies: 1;1; label: Cy5 on forward strand; blunt

T1 sequence (Q21305 whole entry, chain 1 of 2): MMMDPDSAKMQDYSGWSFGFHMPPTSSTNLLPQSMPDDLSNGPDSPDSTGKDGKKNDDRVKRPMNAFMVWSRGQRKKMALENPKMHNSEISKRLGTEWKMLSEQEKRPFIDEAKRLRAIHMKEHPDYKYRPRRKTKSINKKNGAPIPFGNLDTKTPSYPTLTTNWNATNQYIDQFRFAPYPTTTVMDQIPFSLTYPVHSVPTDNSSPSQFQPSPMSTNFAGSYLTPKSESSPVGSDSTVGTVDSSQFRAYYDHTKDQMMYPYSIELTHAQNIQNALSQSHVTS
T1 sequence (Q10666 181-281, chain 2 of 2): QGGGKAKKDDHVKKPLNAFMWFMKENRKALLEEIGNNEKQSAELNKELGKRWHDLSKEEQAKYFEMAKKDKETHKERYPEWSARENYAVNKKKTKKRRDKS
Sequence of SOX-2;HMG-POP-1 (Q21305 whole entry, chain 1 of 2): as the sequence (Q21305 whole entry, chain 1 of 2) above
Sequence of SOX-2;HMG-POP-1 (Q10666 181-281, chain 2 of 2): as the sequence (Q10666 181-281, chain 2 of 2) above

B1: lim-6 intron 4 probe 1 (dsDNA)
DNA 1: TACGATTTGCAAACAACAAACATTCCAGACAGAT
DNA 2: ATCTGTCTGGAATGTTTGTTGTTTGCAAATCGTA
binding result [1]: binds
binding result [2]: binds

B2: lim-6 intron 4 probe 2 (dsDNA)
DNA 1: CTGCTACCGTAGTGCTTTGTTGATTTAACACACA
DNA 2: TGTGTGTTAAATCAACAAAGCACTACGGTAGCAG
binding result [3]: binds
